Reference: US9611303B2, “Modified biotin-binding protein” (Japan Tobacco Inc., priority 2009, dated 2017)
Substitutions are numbered along the chain they refer to. In names and notes the source's numbering stands. Several values for one entry are separate records, joined by “and”; a condition that tells them apart may be missing. Equal values may be shown once. Entries after “also recorded” stand apart in the source; their conditions may differ.

B1: TM2 L97T-V113R: TM2 with 97th leucine replaced with threonine and 113th valine with arginine (protein)
chain: MSDVQSSLTGTWYNELNSKMELTANKDGTLTGKYLSKVGDVYVPYPLSGRYNLQPPAGQGVALGWAVSWENSKIHSATTWSGQFFSESSPVILTQWTLSSSTARGDVWESTLRGNDSFTKTAPTEQQIAHAQLHCRAPRLK
B2: TM2 V113R: TM2 in which the 113th valine was replaced with arginine (protein)
chain: B1 chain with T97L
B3: TM2 A66R-L97T: TM2 double mutant A66R and L97T; not in the list of 30 forms, vector named in b302 (protein)
chain: B1 chain with A66R, R113V
B4: TM2 A66R-V113R: TM2 with 66th alanine and 113th valine replaced with arginine (protein)
chain: B1 chain with A66R, T97L
B5: TM2 A66R-L97T-V113R: TM2 with A66R, L97T and V113R replacements (protein)
chain: B1 chain with A66R
B6: TM2 A66R: TM2 in which the 66th alanine was replaced with arginine (protein)
chain: B1 chain with A66R, T97L, R113V
B7: TM2 L97T: TM2 in which the 97th leucine was replaced with threonine (protein)
chain: B1 chain with R113V
B8: TM2 W108E: TM2 in which the 108th tryptophan was replaced with glutamic acid (protein)
chain: B1 chain with T97L, W108E, R113V
B9: TM2 W69K: TM2 in which the 69th tryptophan was replaced with lysine (protein)
chain: B1 chain with W69K, T97L, R113V
B10: TM2 W108K: TM2 in which the 108th tryptophan was replaced with lysine (protein)
chain: B1 chain with T97L, W108K, R113V
B11: TM2 N14A: TM2 in which the 14th asparagine was replaced with alanine (protein)
chain: B1 chain with N14A, T97L, R113V

Test: Purification of LATM2 with 2-iminobiotin-agarose
Assay type: binding
Conditions: not given
Method: LATM2 was purified through a column charged with 2-iminobiotin-agarose (manufactured by Sigma-Aldrich Corp.) in accordance with the method by Hofmann, et al., (1980). IPTG was added to 25 mL of a culture solution of E. coli transformed with each LATM2 in a final concentration of 1 mM to induce expression. The E. coli cells were collected by centrifugation, suspended in 1.5 mL of 50 mM CAPS (pH 12) containing 50 mM NaCl, and then sonicated. To the supernatant of the disrupted cells, 500 μL of 2-iminobiotin-agarose was added, which was then packed in a column. The column was sufficiently washed with 50 mM CAPS (pH 12) containing 500 mM NaCl, and elution was then performed with 50 mM NH4OAC (pH 4).
(§1) The recovery rate in Table 2 was calculated by dividing the amount of LATM2 protein after purification by the amount of LATM2 protein before purification and was expressed by percent by multiplying the quotient by 100. The degree of purification was the ratio of the amount of LATM2 protein to the total amount of proteins in the purified fraction and was expressed by percent by multiplying the ratio by 100. The recovery rates and the degrees of purification in biotin-agarose were the results after binding at pH 7 and elution with an excess amount of biotin.

Row | binding to 2-iminobiotin-agarose | Molecule
1 | did not bind | B1
2 | did not bind | B2
3 | did not bind | B3
4 | did not bind | B4
5 | did not bind | B5
6 | did not bind | B6

Same assay, conditions: FT = column flow-through fraction

Row | Molecule | Note (Iminobiotin-agarose)
7 | B1 | To FT
8 | B2 | To FT
9 | B3 | To FT
10 | B4 | To FT
11 | B5 | To FT
12 | B6 | To FT
13 | B7 | To FT
14 | B8 | To FT
15 | B9 | To FT

Same assay, conditions: Iminobiotin-agarose; binding at pH 12, elution with 50 mM NH4OAC (pH 4)

Row | Molecule | Recovery rate (%)
16 | B10 | 30%
17 | B1 | 0%
18 | B2 | 0%
19 | B3 | 0%
20 | B4 | 0%
21 | B5 | 0%
22 | B6 | 0%
23 | B11 | 10%
24 | B7 | 0%
25 | B8 | 5%
26 | B9 | 5%

Same assay, conditions: purification with 2-iminobiotin-agarose

Row | Molecule | recovery rates compared with WT
27 | B10 | inferior to WT
28 | B11 | inferior to WT
29 | B8 | inferior to WT
30 | B9 | inferior to WT

Test: Purification of LATM2 with biotin-agarose
Assay type: binding
Conditions: not given
Method: Purification with biotin-agarose (manufactured by Sigma-Aldrich Corp.) was performed by the following procedure. After induced expression of 25 mL of a culture solution of E. coli for each LATM2, the E. coli cells were suspended in 1.5 mL of a 100 mM potassium phosphate buffer (pH 7.0), and then sonicated. To the supernatant of the disrupted cells. 400 μL of biotin-agarose was added, which was followed by upside-down mixing for 1 hr. […]
In TM2 S36A-T78A-D116A, the E. coli cells were suspended in 1.5 mL of 50 mM CAPS (pH 12) containing 50 mM NaCl, and then sonicated. To the disrupted cells, 400 μL of biotin-agarose was added, which was followed by upside-down mixing for 1 hr. The column was sufficiently washed with 50 mM CAPS (pH 12) containing 500 mM NaCl, and elution was then performed with 1 mL of PBS (pH 7.4) containing 10 mM biotin.
In TM2 S36A-D116A, the E. coli cells were suspended in 1.5 mL of a 100 mM potassium phosphate buffer (pH 4.0), and then sonicated. To the pupernatant of the disrupted cells, 400 μL of biotin-agarose was added. Washing was performed with a 100 mM potassium phosphate buffer (pH 4) containing 500 mM NaCl, and elution was performed with 1 mL of PBS (pH 7) containing 10 mM biotin. Biotin binding to LATM2 that has been eluted with an excess amount of biotin was removed by dialysis with a 20 mM potassium phosphate buffer overnight.
as §1

Row | binding to biotin-agarose | Molecule | elution from biotin-agarose with an excess amount of biotin
31 | did not bind | B4 | –
32 | bound to biotin-agarose | B7 | not eluted

Same assay, conditions: Biotin-agarose, binding at pH 7, recovery with 10 mM biotin

Row | Molecule | Recover rate (%)
33 | B10 | 95%
34 | B1 | 70%
35 | B2 | 30%
36 | B3 | 80%
37 | B4 | 0%
38 | B5 | 30%
39 | B6 | 50%
40 | B11 | 50%
41 | B7 | 0%
42 | B8 | 95%
43 | B9 | 50%

Same assay, conditions: Biotin-agarose, elution with acetic acid

Row | Molecule | recover rate by elution with acetic acid
44 | B9 | recover rate: 95%

Same assay, conditions: binding at pH 7, recovery with 10 mM biotin; FT = flow-through

Row | Molecule | Note (Biotin-agarose)
45 | B4 | To FT
46 | B7 | not eluted

Test: Subunit association by FPLC on Sephacryl S-100HR
Assay type: physicochemical
Conditions: FPLC
Method: In order to analyze the subunit association conditions of LATM2, the molecular weight of each LATM2s was measured by FPLC. Sephacryl S-100HR (manufactured by GE Healthcare) was used as a column, a Gel Filtration Calibration Kit LMW (manufactured by GE Healthcare) was used as molecular weight markers, and 50 mM potassium phosphate containing 500 mM NaCl was used as a buffer.
The positions of the peaks of eluted tetramer were defined to be 44 to 47 mL after injection of WT-TM2 as a control. The peak of an eluted monomer appeared at around 63 to 66 mL and the peak of an eluted dimer appeared at around 51 to 54 mL, from result of loading the molecular weight markers.

Row | Molecule | share present as tetramer | share present as dimer
47 | B10 | 100% | –
48 | B8 | 33% | 67%

Same assay, conditions: Sephacryl S-100HR, 50 mM potassium phosphate, 500 mM NaCl

Row | Molecule | Structure (identified by FPLC)
49 | B10 | Tetramer
50 | B1 | Tetramer
51 | B2 | Tetramer
52 | B11 | Tetramer
53 | B8 | dimer; also recorded: tetramer,
54 | B9 | Tetramer

Same assay, conditions: Sephacryl S-100HR, 50 mM potassium phosphate, 500 mM NaCl; dimer peak

Row | Molecule | Structure (identified by FPLC)
55 | B3 | dimer,
56 | B5 | dimer,

Same assay, conditions: Sephacryl S-100HR, 50 mM potassium phosphate, 500 mM NaCl; monomer peak

Row | Molecule | Structure (identified by FPLC)
57 | B5 | monomer
58 | B6 | monomer

Same assay, conditions: Sephacryl S-100HR, 50 mM potassium phosphate, 500 mM NaCl; tetramer peak

Row | Molecule | Structure (identified by FPLC)
59 | B6 | tetramer,

Same assay, conditions: of the total, FPLC

Row | Molecule | share present as monomer
60 | B3 | 90%
61 | B5 | 64.8%
62 | B6 | about 30%

Same assay, conditions: of the total, FPLC; listed as A66R

Row | Molecule | share present as monomer
63 | B6 | 30%

Same assay, conditions: tetramer 44 to 47 mL, dimer 51 to 54 mL, monomer 63 to 66 mL

Row | Molecule | Sephacryl (mL), elution peak position
64 | B10 | 45.14 mL
65 | B1 | 45.42 mL
66 | B2 | 46.49 mL
67 | B11 | 46.24 mL
68 | B8 | 44.69 mL and 52.30, mL
69 | B9 | 45.09 mL

Same assay, conditions: tetramer 44 to 47 mL, dimer 51 to 54 mL, monomer 63 to 66 mL; dimer peak

Row | Molecule | Sephacryl (mL), elution peak position
70 | B3 | 54.49, mL
71 | B5 | 54.38, mL

Same assay, conditions: tetramer 44 to 47 mL, dimer 51 to 54 mL, monomer 63 to 66 mL; monomer peak

Row | Molecule | Sephacryl (mL), elution peak position
72 | B5 | 67.21 mL
73 | B6 | 66.15 mL

Same assay, conditions: tetramer 44 to 47 mL, dimer 51 to 54 mL, monomer 63 to 66 mL; tetramer peak

Row | Molecule | Sephacryl (mL), elution peak position
74 | B6 | 45.50, mL
